The values below come from PMC3989777 (Cell Reports, 2014).

Where a SMILES comes first, the peptide text is derived from it. Where no end group is shown, it is not given here. [ ]: non-standard residue; d: D form. pS = N[C@@H](COP(=O)(O)O)C(=O)O

Assay [1] has as its target PIH1D1 (1-180) (Homo sapiens, UniProt Q9NWS0). The assay is described as follows: ITC of phosphopeptide binding to PIH1D1 1-180.
Assay [2] has as its target PIH1D1 1–180 (human, UniProt Q9NWS0 1-180). Kind of assay: ITC. For orientation: In ITC the heat of successive injections is recorded.

Sequence of PIH1D1 1–180 (Q9NWS0 1-180): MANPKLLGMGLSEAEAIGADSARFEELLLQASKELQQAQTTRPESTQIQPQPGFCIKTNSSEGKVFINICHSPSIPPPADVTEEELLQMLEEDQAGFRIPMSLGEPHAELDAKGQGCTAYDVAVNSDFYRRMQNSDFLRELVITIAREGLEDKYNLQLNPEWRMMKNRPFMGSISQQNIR
Sequence of PIH1D1 (1-180) (Q9NWS0 1-180): as above

Take `CC(C)C[C@H](NC(=O)[C@H](CC(=O)O)NC(=O)[C@H](COP(=O)(O)O)NC(=O)[C@H](CC(=O)O)NC(=O)[C@H](CO)NC(=O)CNC(=O)[C@H](C)NC(=O)[C@@H](N)Cc1ccc(O)cc1)C(=O)N[C@@H](CC(=O)O)C(=O)N[C@@H](COP(=O)(O)O)C(=O)N[C@@H](CC(=O)O)C(=O)N[C@@H](CC(=O)O)C(=O)N[C@@H](CCC(=O)O)C(=O)N[C@@H](Cc1ccccc1)C(=O)N[C@H](C(=O)N1CCC[C@H]1C(=O)N[C@@H](Cc1ccc(O)cc1)C(N)=O)C(C)C` (H-YAGSD[pS]DLD[pS]DDEFVPY-NH2): the “higher affinity relative to the TEL2 peptide phosphorylated on Ser491” value in assay [1] is 2- to 3 fold.

By Kd is commonly meant the equilibrium constant for the complex coming apart. Molecule YAGSDSDLD[pS]DDEFVPY (also: phosphoserine at Ser491, place not mappable) [TEL2 peptide phosphorylated on Ser491] came in with a Kd in assay [2] of 3.5 µM. Regarding RPNESD[pS]DDLDDY [ECD peptide RPNESDpS505DDLDDY], the affinity in assay [2], expressed as Kd, was 16 µM.
